Measurements from publication PMC10397247.
Like-named read-outs stand apart in the source and are kept apart here.

Columns and labels:
Experiment in all cases: two-hybrid library CCmax;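 note: natural log of median RNA to DNA barcode read ratio; higher means stronger binding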
4H340-AA = target: T1, 4H340-AA; conditions: mean of both orientations
T1 chain: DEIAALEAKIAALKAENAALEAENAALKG

4H1594-AA = target: T2, 4H1594-AA; conditions: mean of both orientations
T2 chain: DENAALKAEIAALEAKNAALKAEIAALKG

4H2907-AA = target: T3, 4H2907-AA; conditions: mean of both orientations
T3 chain: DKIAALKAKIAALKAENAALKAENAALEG

4H174-AA = target: T4, 4H174-AA; conditions: mean of both orientations
T4 chain: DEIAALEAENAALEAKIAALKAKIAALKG

4H2648-AA = target: T5, 4H2648-AA; conditions: mean of both orientations
T5 chain: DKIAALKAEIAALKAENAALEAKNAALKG

4H982-AA = target: T6, 4H982-AA; conditions: mean of both orientations
T6 chain: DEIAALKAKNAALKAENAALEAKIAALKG

4H2109-AA = target: T7, 4H2109-AA
T7 chain: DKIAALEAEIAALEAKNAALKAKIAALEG

4H3381-AA = target: T8, 4H3381-AA; conditions: mean of both orientations
T8 chain: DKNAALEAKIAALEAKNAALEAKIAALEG

4H1842-AA = target: T9, 4H1842-AA; conditions: mean of both orientations
T9 chain: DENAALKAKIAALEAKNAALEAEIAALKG

4H2198-AA = target: T10, 4H2198-AA; conditions: mean of both orientations
T10 chain: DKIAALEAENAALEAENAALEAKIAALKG

4H3718-AA = target: T11, 4H3718-AA; conditions: mean of both orientations
T11 chain: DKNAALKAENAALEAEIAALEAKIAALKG

4H930-AA = target: T12, 4H930-AA; conditions: mean of both orientations
T12 chain: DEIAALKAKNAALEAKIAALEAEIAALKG

4H1864-AA = target: T13, 4H1864-AA; conditions: mean of both orientations
T13 chain: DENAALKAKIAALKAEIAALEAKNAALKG

4H32-AA = target: T14, 4H32-AA; conditions: mean of both orientations
T14 chain: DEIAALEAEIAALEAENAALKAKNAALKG

4H745-AA = target: T15, 4H745-AA; conditions: mean of both orientations
T15 chain: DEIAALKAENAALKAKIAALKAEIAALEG

4H171-AA = target: T16, 4H171-AA; conditions: mean of both orientations
T16 chain: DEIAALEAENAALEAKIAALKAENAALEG

4H3130-AA = target: T17, 4H3130-AA; conditions: mean of both orientations
T17 chain: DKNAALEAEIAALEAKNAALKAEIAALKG

4H1513-AA = target: T18, 4H1513-AA; conditions: mean of both orientations
T18 chain: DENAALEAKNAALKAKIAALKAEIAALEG

4H1629-AA = target: T19, 4H1629-AA; conditions: mean of both orientations
T19 chain: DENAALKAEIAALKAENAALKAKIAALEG

For DENAALEAEIAALKAKNAALEAKIAALKG [4H1142-AA], the interaction score (4H340-AA) was -1.35, the interaction score (4H1594-AA) was 0.842 and the interaction score (4H2907-AA) was -1.24. It also gave an interaction score (4H174-AA) of -0.4, an interaction score (4H2648-AA) of -0.52 and an interaction score (4H982-AA) of -1.22. It also gave an interaction score (4H2109-AA) of 0.249, an interaction score (4H3381-AA) of -0.986 and an interaction score (4H1842-AA) of -0.709. For the same binder, the interaction score (4H2198-AA) was -1.52, the interaction score (4H3718-AA) was -1.33 and the interaction score (4H930-AA) was -1.1. The interaction score (4H1864-AA) was -1.38, the interaction score (4H32-AA) was -1.11 and the interaction score (4H745-AA) was -1.19. For the same binder, the interaction score (4H171-AA) was -1.36, the interaction score (4H3130-AA) was 0.0677 and the interaction score (4H1513-AA) was -1.67. It also gave an interaction score (4H1629-AA) of -1.15.

DENAALEAKIAALEAENAALKAKIAALKG [4H1310-AA] showed an interaction score (4H340-AA) of -1.45, an interaction score (4H1594-AA) of 1.18 and an interaction score (4H2907-AA) of 1.34. For the same binder, the interaction score (4H174-AA) was 0.83, the interaction score (4H2648-AA) was -1.18 and the interaction score (4H982-AA) was -1.4. For the same binder, the interaction score (4H2109-AA; mean of both orientations) was 0.409, the interaction score (4H3381-AA) was -1.23 and the interaction score (4H1842-AA) was 0.334. For the same binder, the interaction score (4H2198-AA) was -0.878, the interaction score (4H3718-AA) was -1.04 and the interaction score (4H930-AA) was -1.4. It also gave an interaction score (4H1864-AA) of -1.48, an interaction score (4H32-AA) of -1.07 and an interaction score (4H745-AA) of -1.11. The interaction score (4H171-AA) was -0.8, the interaction score (4H3130-AA) was 0.822 and the interaction score (4H1513-AA) was -1.48. The interaction score (4H1629-AA) was -0.348.
